The record followed here is the supplement of paper PMC12042874.

± gives the uncertainty stated by the source.

A short description of the data set: amyloid nucleation score (Sup35N fusion, yeast selection) (log enrichment); library NNK1; higher = more nucleation; inactive = no reads after selection. A digest of the protocol: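 The nucleation score is the log enrichment of output over input reads, calculated with DiMSum and centred on the mode score of non-aggregating sequences. Sequences with under 100 input reads were excluded. Reads came from Illumina sequencing of plasmid inserts from psi-negative yeast expressing Sup35N fused to peptides of 20 random codons, induced 24 hours with 100 μM copper sulfate and grown 7 days at 30°C without adenine and uracil.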
Substance LVTMLLNKYIVNRSHDGVRI displayed an amyloid nucleation score of 0.966 ± 0.49.
On to LVTRGFEVRGDHQVIKYFLA, for which the amyloid nucleation score is -0.6 ± 0.49.
Take LVVFLNC: the amyloid nucleation score is -0.607 ± 0.39.
For the substance LVVQLYS, the amyloid nucleation score was -0.336 ± 0.62.
Consider LVVYRSKQRSYCCM, for which the amyloid nucleation score was -0.359 ± 1.9.
LWCCGGAFHSTDLGSAGLIM: the amyloid nucleation score was 0.372 ± 1.4.
In the case of LWFSYATCICIPRIPSNC it was 6.26 ± 0.071; in that of LWLRSLIVYYNSFVDMGGCA, 0.549 ± 0.3.
With LWLRYGL, the amyloid nucleation score was 0.415 ± 0.72.
As for LWRNKTHISVLQRGQVYHQT, the amyloid nucleation score stood at 0.182 ± 0.57.
As to LWSYRDFRQVSTELN, the amyloid nucleation score is -1.15 ± 2.7.
In the case of LWVTRRPVGGFMW it was 0.721 ± 0.79; in that of LWWSSSLLASTAQCQGTGFM, -0.255 ± 0.76.
For LWWYFHRTL, the amyloid nucleation score is -0.168 ± 0.65.
In the case of LYAAYCRQGTTHAIR it was -0.389 ± 0.54; in that of LYCNVISILACFVTTIRGRG, 3.64 ± 0.16; in that of LYFQAFHYQQWCIWFYFYIL, 1.42 ± 0.49.
Substance LYHIGIGLKRSFNDAYV displayed an amyloid nucleation score of 0.038 ± 0.44.
The substance LYIGIPYVGVWNL returned an amyloid nucleation score of 0.282 ± 1.2.
In turn, LYKDGQGSKEAIVSRVDCMS displayed an amyloid nucleation score of 0.892 ± 0.25.
Take LYLSWSFSALSV: the amyloid nucleation score is -0.593 ± 1.2.
As to LYNFVGSNRIRFASCTQLLC, the amyloid nucleation score was 1.87 ± 0.38.
Consider LYPMGYVRRCI, for which the amyloid nucleation score is -0.29 ± 0.54.
The substance LYQCRNDCCYDWMLWYTWRS registered an amyloid nucleation score of 0.505 ± 0.34.
Consider LYRDSLKLF, for which the amyloid nucleation score is -0.725 ± 0.49.
As for LYRSLLN, the amyloid nucleation score is -0.23 ± 1.1.
As to LYWSPVWM, the amyloid nucleation score is -0.232 ± 1.5.
Turning to LYWSQIEVVNPQTTEGLNRD, the amyloid nucleation score was -0.528 ± 0.61.
MALLARFRGAFLVCSGFIAC: the amyloid nucleation score was -1.56 ± 2.4.
Turning to MARVC, the amyloid nucleation score is -1.56 ± 2.4.
For the substance MASTESNPIKLLKVHLKYTS, the amyloid nucleation score is -0.97 ± 1.4.
As for MAVSNLSDLRLMSMRHFS, the amyloid nucleation score is -0.794 ± 0.95.
Regarding MCIFICLPVTVYDNIFHSFL, the amyloid nucleation score amounted to 6.22 ± 0.096.
MCLTRSSLEVRQVTIVMWSG: the amyloid nucleation score worked out at 0.387 ± 0.52.
On to MCPSIQCYNNYILLQRSVIR, for which the amyloid nucleation score was determined as 7.08 ± 0.073.
MCSERMGFFIVSGVVLKLTH: the amyloid nucleation score amounted to 0.814 ± 0.57.
Turning to MCSSKPSGPLAVN, the amyloid nucleation score is -1.02 ± 0.52.
Turning to MDAFTNAWVMGWCMLHCARG, the amyloid nucleation score was determined as 0.524 ± 0.7.
In turn, MDCCYYFFLIF gave an amyloid nucleation score of 4.15 ± 0.052.
In the case of MDKSELK, the amyloid nucleation score amounted to 0.128 ± 0.86.
MDLGRMSSGFMRSNMNKKVR returned an amyloid nucleation score of 0.519 ± 0.4.
For the substance MDPIPREAQVKVLSSHTTIG, the amyloid nucleation score came out at 0.606 ± 0.53.
Regarding MDRDASYHGYIGHLLSWIGM, the amyloid nucleation score was 0.886 ± 1.1.
In the case of MDRIRFLFFW it was 0.448 ± 0.69; in that of MENEWIVTSCFLFWINFYSV, 4.23 ± 0.072.
In the case of MENISLINGLETMYPIDRLT it was -2.15 ± 2.4; in that of MERPGNCVGWRRCPLHVTNG, -0.292 ± 1.2.
Regarding MEWDAYVMI, the amyloid nucleation score worked out at 0.442 ± 0.84.
In the case of MFAWLDDLFRY it was -0.3 ± 0.38; in that of MFCKAVSKERWMV, -0.269 ± 0.92; in that of MFGKLLICYRLYK, 0.084 ± 0.75.
In the case of MFLNII it was -0.112 ± 0.74; in that of MFQVVGRYNGVFLVTEPWTC, “inactive”; in that of MFSVFNRKRN, -0.354 ± 0.26.
In the case of MFTYDGRVEWVLA it was -0.133 ± 0.45.
As to MGILW, the amyloid nucleation score was -0.328 ± 0.66.
In the case of MGLSNSDADGRTLRNEHVKS it was -1.35 ± 2.1; in that of MGNIVTLHFSHVGHRYSKWV, “inactive”.
The substance MGRQEASMKRCTSGDVGGWL came in with an amyloid nucleation score of 0.523 ± 0.78.
In the case of MHHCSFSSLDFTVHK, the amyloid nucleation score is -1.02 ± 2.4.
In the case of MHMGFAWMSLIM it was “inactive”.
In the case of MHRSFFHVM it was 2.33 ± 0.52.
For the substance MIFPDQYYYSISPW, the amyloid nucleation score is -0.115 ± 0.28.
Take MIGNRY: the amyloid nucleation score came out at 0.091 ± 0.26.
In the case of MIIRLVLVGSSYKNVPSAEG, the amyloid nucleation score was 0.137 ± 0.49.
In the case of MILLKCIYY it was 0.179 ± 0.39.
Take MIMKYLSDVLTRIGHDIFFA: the amyloid nucleation score was -0.872 ± 1.4.
Substance MINVYK gave an amyloid nucleation score of 4.33 ± 0.073.
In the case of MISLHVL it was -0.109 ± 1.3; in that of MKDSGCPSGNNTALEGASLI, 0.269 ± 0.49; in that of MKFRINVDLLLNLDNPGIKL, 0.165 ± 0.45.
As for MKMRFVVSLMNSERSSGRNE, the amyloid nucleation score stood at 0.9 ± 0.5.
In the case of MKQALMGVVMIHWGGRSRV it was 0.687 ± 0.54.
In the case of MKQFIKNLNISLPPARTQLT it was “inactive”; in that of MLEESVLHSLLICGANSVFK, 0.195 ± 1.1.
Consider MLFPSVSKRLNVSALNCKNP, for which the amyloid nucleation score is -0.083 ± 1.4.
The substance MLHYSARGFRRHK displayed an amyloid nucleation score of 0.326 ± 1.2.
In the case of MLKMTVYFHIMID it was -0.065 ± 1.1; in that of MLLLSVSLSLKID, 4.35 ± 0.095.
In turn, MLLPSYVEF gave an amyloid nucleation score of 1.46 ± 0.34.
Turning to MLNVEGNTLKSWIYGRHLVP, the amyloid nucleation score came to 0.097 ± 0.69.
In the case of MLRMLAVQCFSSCIARLD it was 2.05 ± 0.3.
With MLRTMG, the amyloid nucleation score turned out to be 0.746 ± 0.5.
Substance MLSMFGWISSIFVYYYLNKR returned an amyloid nucleation score of 0.571 ± 0.17.
In the case of MLSNGGLHVRSK it was 1.31 ± 0.93; in that of MLSVSWFAVAMVYMGMNNTC, 2.04 ± 0.48.
In the case of MLWSKKGTGNYRYCRTGYTG it was 0.322 ± 0.49; in that of MLWTCKDNLCKDMTHVWSIY, “inactive”; in that of MMGGKDCQFYCSIPLFRVMM, 2.2 ± 0.16.
In the case of MMPFYHSNSR, the amyloid nucleation score is -1.38 ± 1.1.
For MMSSEVLPINSCIRSWANAL, the amyloid nucleation score was -0.431 ± 0.29.
MNLYNRNYLYCIYRKETTTT: the amyloid nucleation score is -0.957 ± 1.4.
Take MNVGCSVVWIKCLNACTSKQ: the amyloid nucleation score was 6.168 ± 0.06.
In the case of MPCHAFAKMFVQSEFSGSVC it was 0.498 ± 0.97; in that of MPCNVGMGWCRVVNWWGLYG, 0.604 ± 0.44.
Regarding MPKAQDALTLKNGELKRLSG, the amyloid nucleation score came to 0.295 ± 0.4.
For MPLAKSPLTLG, the amyloid nucleation score was 4.39 ± 0.062.
In the case of MQFCVEYTRPVRYQLWGSLM it was 0.327 ± 0.83; in that of MQNCISLL, -0.483 ± 0.4.
Turning to MQSMQL, the amyloid nucleation score entry is “inactive”.
MQVNIVGVSILVAWPR gave an amyloid nucleation score of 6.48 ± 0.071.
In the case of MQWSYV it was 0.32 ± 0.37.
Take MRASTFNYSYELKINVVCYT: the amyloid nucleation score was -0.918 ± 0.53.
For MRCISYIYEHAL, the amyloid nucleation score is 0.567 ± 0.66.
In the case of MRDLK it was -0.405 ± 0.53; in that of MRHGSKAWQLYRLFKYDFFW, 0.534 ± 0.9.
On to MRPVGTRFSSIP, for which the amyloid nucleation score was -0.201 ± 0.55.
The substance MRRCTGMLCYTIS registered an amyloid nucleation score of 0.97 ± 0.53.
Turning to MRTDFERHIVSYVSELCKLP, the amyloid nucleation score is -0.162 ± 0.73.
For MRVGIWDKMRSLRCDISAC, the amyloid nucleation score came to 0.293 ± 0.66.
MSDRKCKKDSRYLWRDLLPE yielded an amyloid nucleation score of 0.264 ± 0.46.
Regarding MSFQY, the amyloid nucleation score is -2.11 ± 1.9.
MSGVRYLCCL had an amyloid nucleation score of 0.087 ± 0.58.
MSIAMDGYFYPSSAAPFFIT: the amyloid nucleation score was -0.156 ± 0.42.
In the case of MSIVCFCW, the amyloid nucleation score was 8.155 ± 0.047.
In the case of MSVEIVTIGGGF it was -0.481 ± 1.4; in that of MSVVWSWMYFIKLDTFA, -0.348 ± 0.23; in that of MTAGLHQ, 3.47 ± 0.082.
Turning to MTEQVAANAEDWSVVGNWLV, the amyloid nucleation score was found to be 0.43 ± 0.5.
MTLRLS registered an amyloid nucleation score of 0.375 ± 0.41.
On to MTPKLVQSRT, for which the amyloid nucleation score was determined as 0.106 ± 0.91.
Substance MTPTTWLYPVILTSSLS yielded an amyloid nucleation score of 0.44 ± 0.84.
MTSAGSAWVYSYFYLGLIRK: the amyloid nucleation score was -0.143 ± 0.53.
MTSCMRWAVNRYSFLLWKAN: the amyloid nucleation score was -0.416 ± 0.29.
Turning to MTTHVRWFNGLMSP, the amyloid nucleation score entry is “inactive”.
Substance MTYTSWMMNRFNITNSYNLV gave an amyloid nucleation score of 0.755 ± 0.97.
For the substance MVDMILLGRNFINKRMLCLG, the amyloid nucleation score is 0.019 ± 0.64.
For the substance MVGSAVVFVLENLGVTGSWG, the amyloid nucleation score was found to be 0.072 ± 0.84.
With MVIYR, the amyloid nucleation score is -0.517 ± 0.75.
With MVLWW, the amyloid nucleation score was -0.231 ± 0.58.
MVWPFKRRRWHYGILALLDR: the amyloid nucleation score was -1.22 ± 0.75.
MWAAGDNHYSNKVLSLAMVV gave an amyloid nucleation score of 0.501 ± 1.
In the case of MWWAHDGFRSCLRHISHADG it was 0.349 ± 0.91; in that of MWYNCFMTNPGFQLSPMGSI, 0.851 ± 0.55.
In the case of MYFSIRDCCSYAFNSFDIYG it was 5.508 ± 0.047; in that of MYGNES, -0.02 ± 0.4.
MYHLSGVSYMFSLCSDCRRL came in with an amyloid nucleation score of 8.122 ± 0.066.
In the case of MYKAEICLMSLENRPLMLPF it was 0.203 ± 0.44.
In the case of MYLVDASMSKPLIVLKSCN it was 0.686 ± 1.1; in that of MYMGAPSIVVIVMLQNMKFV, 2.34 ± 0.32.
In the case of MYNNTALRRSEYADCH it was 0.872 ± 0.8.
Take MYSKIYIFNLEFLMTYWNAL: the amyloid nucleation score came out at 1.92 ± 0.3.
Consider MYYDMLSCFGEVKRS, for which the amyloid nucleation score was -0.183 ± 0.79.
For the substance NALRVV, the amyloid nucleation score is -0.637 ± 0.68.
